Sequences and labels used below:
B1: S. pombe Grx4 (WT) (natural protein, UniProt O74790 1-244, looked up)
chain: MSVEITFVEQFQEILQNGKEQIILLNFYAPWAAPCKQMNQVFDQFAKDTKNAVFLKIEAEKFSDIAESFDVNAVPLFVLIHGAKVLARISGANPQKLKAAIDEYIQPLISQISSTNASVETQVNSVQTTNTTSNTSKAPNGLDSELNERLSTLTNAHNVMLFLKGTPSEPACGFSRKLVGLLREQNVQYGFFNILADDSVRQGLKVFSDWPTFPQLYIKGEFVGGLDIVSEMIENGELQEMLPN

The data set “SEC” concerns the molecule itself. Put plainly: SEC. (In gel filtration, larger molecules generally elute earlier.)
Data set [1] addresses T1, S. pombe Php4 (WT), 6xHis-tagged (S. pombe, UniProt O14318 1-295).
T1 sequence (looked up): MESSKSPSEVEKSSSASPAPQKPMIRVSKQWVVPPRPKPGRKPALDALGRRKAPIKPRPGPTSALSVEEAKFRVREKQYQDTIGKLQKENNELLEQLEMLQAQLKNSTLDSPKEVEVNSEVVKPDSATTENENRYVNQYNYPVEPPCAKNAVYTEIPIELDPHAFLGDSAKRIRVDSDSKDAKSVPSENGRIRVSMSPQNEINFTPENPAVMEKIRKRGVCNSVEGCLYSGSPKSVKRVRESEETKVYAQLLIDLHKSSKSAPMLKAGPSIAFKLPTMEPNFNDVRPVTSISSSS
The data set can be described thus: SPR. In general terms: In SPR one partner is held on a chip, and binding of the other changes the refractive index at the surface.

In the data set “S. pombe Grx4 (WT)” the target is B1. Put plainly: CD-monitored titration.

Three molecules from article PMC5595146 (Metallomics : integrated biometal science, 2017) can be followed below.

The Kd is the concentration at which binding is half-saturated. Broadly, the koff is a measure of how fast the partners let go of each other. A high value points to fast dissociation. In general, kon refers to the second-order rate constant of association.

Take B1: the binding result in the data set “SEC” is “binds”. For the same molecule, in data set [1], the Kd turned out to be 34.1 µM, the koff came out at 0.00219 s⁻¹ and the kon was 64.3 M⁻¹ s⁻¹.

B2: S. pombe Grx4 (C172A) (natural protein, UniProt O74790 1-244, looked up)
chain: MSVEITFVEQFQEILQNGKEQIILLNFYAPWAAPCKQMNQVFDQFAKDTKNAVFLKIEAEKFSDIAESFDVNAVPLFVLIHGAKVLARISGANPQKLKAAIDEYIQPLISQISSTNASVETQVNSVQTTNTTSNTSKAPNGLDSELNERLSTLTNAHNVMLFLKGTPSEPAAGFSRKLVGLLREQNVQYGFFNILADDSVRQGLKVFSDWPTFPQLYIKGEFVGGLDIVSEMIENGELQEMLPN
On to B2, for which, in data set [1], the Kd is 897 µM, the koff stood at 0.00916 s⁻¹ and the kon turned out to be 10.2 M⁻¹ s⁻¹.

B3: S. cerevisiae Fra2^Δ1–35 (domain or fragment, UniProt P53082 36-120, looked up)
chain: MPVTEQGLRERIESAIPQVYHIIVTDLSYGCGQSFDIVVVSDFFQGKSKLMRSRAVNKAVKEELQEIHAFSCKCYTEEEWSKIVV
B3: the binding result with S. pombe Grx4 (WT) is reported as “binds”.
